Measured values as given in patent US20260098064A1 (PENN STATE RESEARCH FOUNDATION, published 2026).
Changes are numbered by the printed parent chain. In names and notes the source's numbering stands.

Key:
[1] = target: the molecule itself; experiment: S75 gel filtration during purification, no Ca(II) included; self-association
Experimental: The procedures used for expression in E. coli and purification of LanM_013 were identical to those used for Mex-LanM, except that no Ca(II) was included in the gel filtration step. […] The elution volume of the protein from the S75 column was consistent with a monomer. The purification yielded 80 mg LanM_013 from 2 L culture (40 mg/L).

[2] = target: the molecule itself; experiment: SEC-MALS of apo, Ca^II, La^III, Nd^III and Dy^III Mex-LanM (Table 17); self-association
Experimental: In-line size-exclusion chromatography and multi-angle light scattering (SEC-MALS). SEC-MALS experiments were conducted using an Agilent 1260 Infinity II HPLC system equipped with an autosampler and fraction collector, and the Wyatt SEC hydrophilic column had 5 μm silica beads, a pore size of 100 Å, and dimensions of 7.8×300 mm. Wyatt Technology DAWN MALS and Wyatt Optilab Refractive Index (RI) detectors were used for analyzing the molar mass of peaks that eluted from the column. The SEC-MALS system was equilibrated for 5 h with Buffer B. The system was calibrated with bovine serum albumin (BSA, monomer MW: 66 kDa) in the same buffer and normalization and alignment of the MALS and RI detectors were carried out. A volume of 15 μL of each sample was injected at a flow rate of 0.8 mL/min with a chromatogram run time of 25 min. Data were analyzed using the ASTRA software (Wyatt). When SAXS analysis was desired, a second run was performed with 150 μL protein (˜4 mg/mL) injected, and 200 μL fractions of the main peak were collected. BioSAXS data were subsequently collected in triplicate.
Table 17. Characterization of Hans- and Mex-LanM metal complexes using SEC-MALS. The concentrations of the protein samples loaded to the column were: 1.2-1.5 mg/mL for apo- and RE-bound Hans-LanM, 3 mg/mL for Ca^II-bound Hans-LanM, and 3 mg/mL for Mex-LanM. […]

[3] = analytical SEC (Superdex S75); Hans-LanM with 3.0 equiv. Eu^III
[4] = target: the molecule itself; experiment: ITC, dimer dissociation model, 5% glycerol; Dy-bound wt Hans-LanM; unit not printed (Table 18: kcal/mol)
Experimental: (§1) Isothermal titration calorimetry. The dissociation constants for the dimers of apo, La^III-bound, and Dy^III-bound Hans-LanM were determined by dilutive additions of a concentrated protein stock, followed using ITC on a TA Instruments Low-volume Auto Affinity ITC. The syringe contained 300 μM protein (apo or 2 equiv. Dy^III bound) or 150 μM or 540 μM (2 equiv. La^III bound), and the cell contained 185 μL of a matched buffer (30 mM MOPS, 100 mM KCl, pH 7.0). Titrations were carried out at 30° C. Titrations consisted of a first 0.2 μL injection followed by 17×2 μL injections, unless otherwise noted, with stirring at 125 rpm and 180 s equilibration time between injections. The heats were fitted using NanoAnalyze using the “Dimer Dissociation” model, yielding the dimer dissociation constant (Kdimer), enthalpy of dissociation (ΔH), and entropy of dissociation (ΔS).
(§2) Table 21. Thermodynamics parameters for WT and R100K Hans-LanM, obtained by fitting ITC thermograms to the dimer dissociation model. These experiments were carried out similarly to those shown in Table 18, except that 5% glycerol was present in the buffer.

[5] = target: the molecule itself; experiment: ITC, dimer dissociation model, buffer with 5% glycerol; apo wt Hans-LanM
Experimental: as §1, §2

[6] = analytical SEC (Superdex S75); Hans-LanM with 3.0 equiv. Nd^III
[7] = analytical SEC (Superdex S75); Hans-LanM with 3.0 equiv. Gd^III
[8] = target: the molecule itself; experiment: ITC and SEC-MALS estimate; La^III-bound against Dy^III-bound Hans-LanM
Experimental: (§3) To provide further support for preferential dimerization in the presence of physiologically relevant LREs, RE complexes of Hans-LanM were analyzed using multi-angle light scattering (MALS) (FIG. 2a, FIG. 9). The La^III, Nd^III, and Gd^III complexes have MWs of 22-25 kDa, indicative of dimers, but MWs decrease starting with Tb^III and continue to Dy^III and Ho^III, at ˜15 kDa (Table 17), in agreement with the SEC data. Ca^II-bound Hans-LanM also indicated a MW of 14.7 kDa. […] The Kd for dimerization (Kdimer) of apo-, La^III-bound, and Dy^III-bound Hans-LanM was determined by isothermal titration calorimetry (ITC) (FIG. 10-12, Table 18). […] Thus, La^III favors Hans-LanM's dimerization by >100-fold over Dy^III.
(§4) Isothermal titration calorimetry. The dissociation constants for the dimers of apo, La^III-bound, and Dy^III-bound Hans-LanM were determined by dilutive additions of a concentrated protein stock, followed using ITC on a TA Instruments Low-volume Auto Affinity ITC. The syringe contained 300 μM protein (apo or 2 equiv. Dy^III bound) or 150 μM or 540 μM (2 equiv. La^III bound), and the cell contained 185 μL of a matched buffer (30 mM MOPS, 100 mM KCl, pH 7.0). Titrations were carried out at 30° C. Titrations consisted of a first 0.2 μL injection followed by 17×2 μL injections, unless otherwise noted, with stirring at 125 rpm and 180 s equilibration time between injections. […]

[9] = target: the molecule itself; experiment: ITC, dimer dissociation model; Dy^III-bound Hans-LanM
Experimental: as §1

[10] = target: the molecule itself; experiment: ITC dilution of 300 µM protein, dimer dissociation model (Kdimer); Hans-LanM with 2 equiv. Dy^III; 30 mM MOPS, 100 mM KCl, pH 7.0, 30 C
Experimental: as §1

[11] = analytical SEC (Superdex S75); Hans-LanM with 3.0 equiv. Ho^III
[12] = target: the molecule itself; experiment: ITC, dimer dissociation model, 5% glycerol; apo wt Hans-LanM; unit not printed (Table 18: kcal/mol)
Experimental: as §1, §2

[13] = analytical SEC (Superdex S75); Hans-LanM with 3.0 equiv. Sm^III
[14] = analytical SEC (Superdex S75); Hans-LanM (590 µM) with 3.0 equiv. La^III
[15] = target: the molecule itself; experiment: ITC, dimer dissociation model, 5% glycerol; Dy-bound wt Hans-LanM; unit not printed (Table 18: cal/mol/K)
Experimental: as §1, §2

[16] = analytical SEC (Superdex S75); Hans-LanM with 3.0 equiv. Dy^III
[17] = target: the molecule itself; experiment: ITC, dimer dissociation model, buffer with 5% glycerol; Dy-bound wt Hans-LanM
Experimental: as §1, §2

[18] = analytical SEC (Superdex S75); Hans-LanM with 3.0 equiv. Tb^III
[19] = target: the molecule itself; experiment: ITC, dimer dissociation model; apo Hans-LanM
Experimental: as §1

[20] = target: the molecule itself; experiment: ITC dilution of 300 µM protein, dimer dissociation model (Kdimer); apo Hans-LanM; 30 mM MOPS, 100 mM KCl, pH 7.0, 30 C
Experimental: as §1

[21] = target: the molecule itself; experiment: La^III-bound Hans-LanM; no monomerization seen by ITC; upper limit estimated from SEC-MALS peak concentration (FIG. 12)
Experimental: as §3, §4

[22] = target: the molecule itself; experiment: ITC, dimer dissociation model, 5% glycerol; apo wt Hans-LanM; unit not printed (Table 18: cal/mol/K)
Experimental: as §1, §2

[23] = target: the molecule itself; experiment: ITC, dimer dissociation model, 5% glycerol; Dy-bound R100K-Hans-LanM; unit not printed (Table 18: kcal/mol)
Experimental: as §1, §2

[24] = target: the molecule itself; experiment: ITC, dimer dissociation model, 5% glycerol; La-bound R100K-Hans-LanM; unit not printed (Table 18: cal/mol/K)
Experimental: as §1, §2

[25] = target: the molecule itself; experiment: ITC, dimer dissociation model, buffer with 5% glycerol; Dy-bound R100K-Hans-LanM; ITC dimer dissociation model, 5% glycerol; Dy-bound R100K
Experimental: as §1, §2

[26] = target: the molecule itself; experiment: ITC, dimer dissociation model, 5% glycerol; apo R100K-Hans-LanM; unit not printed (Table 18: kcal/mol); ITC dimer dissociation model, 5% glycerol; apo R100K
Experimental: as §1, §2

[27] = target: the molecule itself; experiment: ITC, dimer dissociation model, 5% glycerol; apo R100K-Hans-LanM; unit not printed (Table 18: cal/mol/K)
Experimental: as §1, §2

[28] = target: the molecule itself; experiment: ITC, dimer dissociation model, buffer with 5% glycerol; La-bound R100K-Hans-LanM; ITC dimer dissociation model, 5% glycerol; La-bound R100K
Experimental: as §1, §2

[29] = target: the molecule itself; experiment: ITC, dimer dissociation model, 5% glycerol; Dy-bound R100K-Hans-LanM; unit not printed (Table 18: cal/mol/K)
Experimental: as §1, §2

[30] = target: the molecule itself; experiment: ITC, dimer dissociation model, buffer with 5% glycerol; apo R100K-Hans-LanM; ITC dimer dissociation model, 5% glycerol; apo R100K
Experimental: as §1, §2

[31] = target: the molecule itself; experiment: ITC, dimer dissociation model, 5% glycerol; La-bound R100K-Hans-LanM; unit not printed (Table 18: kcal/mol); ITC dimer dissociation model, 5% glycerol; La-bound R100K
Experimental: as §1, §2

[32] = target: the molecule itself; experiment: ITC, dimer dissociation model, 5% glycerol; Dy-bound R100K-Hans-LanM; unit not printed (Table 18: kcal/mol); ITC dimer dissociation model, 5% glycerol; Dy-bound R100K
Experimental: as §1, §2

[33] = target: the molecule itself; experiment: ITC, dimer dissociation model, 5% glycerol; La-bound R100K-Hans-LanM; unit not printed (Table 18: kcal/mol)
Experimental: as §1, §2

[34] = target: the molecule itself; experiment: ITC, dimer dissociation model, 5% glycerol; apo R100K-Hans-LanM; unit not printed (Table 18: kcal/mol)
Experimental: as §1, §2

[35] = size exclusion chromatography; 20 µM LanM_012 with 4.0 equiv. La^III; conditions: 20 µM protein, 5% glycerol, pH 7.0
[36] = size exclusion chromatography; 20 µM LanM_012 with 4.0 equiv. Dy^III; conditions: 20 µM protein, 5% glycerol, pH 7.0

B1: LanM_013 (Methyloligella sp. GL2 LanM, expressed construct; signal peptide removed and N-terminal Met added) (other)
chain: MGKAADAIQALDPDKDGTIDLNEAKAGAKAVFEKINPDGDGTLEVKELKGRLTKKELDAADPDNDGTLDMQEYEAVVTKQFELANPDNDGTVDEKELKTKEGKKLLKLIY
notes: Monomer
binding result [1]: no binding

B2: Mex-LanM (lanmodulin from Methylorubrum extorquens AM1) (other)
chain: APTTTTKVDIAAFDPDKDGTIDLKEALAAGSAAFDKLDPDKDGTLDAKELKGRVSEADLKKLDPDNDGTLDKKEYLAAVEAQFKAANPDNDGTIDARELASPAGSALVNLIR
notes: also called LanM_001; M. extorquens LanM
binding result [2]: no binding (tested: 3 mg/mL loaded)

B3: Hans-LanM (lanmodulin from Hansschlegelia quercus, wild type, lacking signal peptide, as expressed in this study) (other)
chain: ASGADALKALNKDNDDSLEIAEVIHAGATTFTAINPDGDTTLESGETKGRLTEKDWARANKDGDQTLEMDEWLKILRTRFKRADANKDGKLTAAELDSKAGQGVLVMIMK
notes: also called LanM_002; wt
Apparent MW (SEC, kDa) [3]: 25.5 kDa
ΔG of dimer dissociation [4]: 6.1 kcal/mol
ΔH of dimer dissociation [4]: -5 kcal/mol
Kd [5]: 100 µM
Apparent MW (SEC, kDa) [6]: 27.8 kDa
Apparent MW (SEC, kDa) [7]: 23 kDa
fold enhancement of dimerization, La^III versus Dy^III [8]: 100 fold
ΔG of dimer dissociation [9]: 5.9 kcal/mol
ΔH of dimer dissociation [9]: -5.3 kcal/mol
ΔS of dimer dissociation [9]: -37 cal/mol/K
Kd [10]: 60 µM
Apparent MW (SEC, kDa) [11]: 17.9 kDa
ΔG of dimer dissociation [12]: 6.3 kcal/mol
ΔH of dimer dissociation [12]: 24 kcal/mol
Apparent MW (SEC, kDa) [13]: 26.1 kDa
Apparent MW (SEC, kDa) [14]: 27.8 kDa
ΔS of dimer dissociation [15]: -36 cal/mol/K
Apparent MW (SEC, kDa) [16]: 20 kDa
Kd [17]: 40 µM
Apparent MW (SEC, kDa) [18]: 21.3 kDa
ΔG of dimer dissociation [19]: 5.5 kcal/mol
ΔH of dimer dissociation [19]: 25.4 kcal/mol
ΔS of dimer dissociation [19]: 66 cal/mol/K
Kd [20]: 117 µM
Kd [21]: < 0.4 µM
ΔS of dimer dissociation [22]: 61 cal/mol/K

B4: R100K-Hans-LanM (other)
chain: B3 chain with R77K
notes: Monomer; also called Hans-LanM(R100K); R100K variant
ΔG of dimer dissociation [23]: 5.9 kcal/mol
ΔS of dimer dissociation [24]: -84 cal/mol/K
Kd [25]: 54 µM
ΔH of dimer dissociation [26]: 16 kcal/mol
ΔS of dimer dissociation [27]: 37 cal/mol/K
Kd [28]: 14 µM
ΔS of dimer dissociation [29]: -73 cal/mol/K
Kd [30]: 82 µM
ΔH of dimer dissociation [31]: -19 kcal/mol
ΔH of dimer dissociation [32]: -16 kcal/mol
ΔG of dimer dissociation [33]: 7 kcal/mol
ΔG of dimer dissociation [34]: 6 kcal/mol

B5: LanM_012 (Xanthobacter flavus LanM, with signal peptide removed) (protein)
chain: MLTGKEFLRKYNKDKDSTVEIVEAIDLGTKVFKAINPDKDKTLEAAETKGRLSDEDWAQFNKDGDKTLELDEWLIIVRKRFNDADANKDGKLTEAELDAPAGQQLILLIAK
apparent molecular weight (SEC) [35]: an apparent molecular weight of ˜29.1 kDa
apparent molecular weight (SEC) [36]: an apparent molecular weight of ˜29.1 kDa
